In publication PMC7614228, “Structural maturation of SYCP1-mediated meiotic chromosome synapsis by SYCE3” (Nature structural & molecular biology, 2023):
Positions count from the first letter of the chain named. “And” between values parts separate entries of the source, which are not always exact repeats. Identical values can stand only once.

What was measured:
[1] = biological target: the molecule itself; assay: SEC-MALS; proteins in isolation, 5-20 mg/ml; Superdex 200 Increase, 20 mM Tris pH 8.0, 150 mM KCl, 2 mM DTT
[2] = biological target: T1, SYCP1αNcore (amino-acids 206-362) (human, UniProt Q15431 206-362); assay: ITC; SYCE3 (400 μM) injected into SYCP1αNcore (70 μM) at 30°C; 25 mM Tris pH 8.0, 250 mM KCl, 2 mM DTT; apparent affinity; details: both partners purified
T1 construct: SYCP1 αNcore (tetrameric core), amino-acids 206-362; Tetramer alone (SEC-MALS); two chains in the 2:1 complex with SYCE3; also called SYCP1 tetrameric core; source: E. coli BL21(DE3), purified alone or co-expressed and co-purified with SYCE3 (amylose, TEV, anion exchange, SEC); not shown: MBP, N-terminal, cleaved
T1 sequence (looked up): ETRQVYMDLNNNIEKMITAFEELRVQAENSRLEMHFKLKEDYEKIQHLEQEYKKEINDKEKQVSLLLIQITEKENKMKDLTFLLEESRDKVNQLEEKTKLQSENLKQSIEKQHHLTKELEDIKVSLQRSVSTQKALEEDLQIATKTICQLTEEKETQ

[3] = biological target: T2, SYCE2-TEX12core (human, UniProt Q6PIF2 57-165; Q9BXU0 49-123, RED dye (Monolith NT Protein Labelling Kit RED) in the MST only; which chain not stated | RED dye (Monolith NT Protein Labelling Kit RED) in the MST only; which chain not stated); assay: MST; SYCE3 titrated into 150 nM labelled SYCE2-TEX12core; Monolith NT.115, excitation and MST power 40 %; apparent affinity; details: both partners purified
T2 construct: SYCE2 core; TEX12 core; Unlabelled in the SEC, labelled in the MST; source: E. coli BL21(DE3), purified
T2 sequence (looked up) 1: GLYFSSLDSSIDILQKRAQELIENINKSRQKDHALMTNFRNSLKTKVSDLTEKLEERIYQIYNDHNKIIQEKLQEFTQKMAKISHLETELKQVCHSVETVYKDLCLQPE
T2 sequence (looked up) 2: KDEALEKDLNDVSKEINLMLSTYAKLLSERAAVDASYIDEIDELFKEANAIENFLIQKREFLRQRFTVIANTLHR

[4] = biological target: T3, SYCP1 αCore-ΔNtip (amino-acids 112-783) (human, UniProt Q15431 112-783); assay: SEC-MALS; co-expressed and co-purified SYCP1-SYCE3 complexes, 5-20 mg/ml; 20 mM Tris pH 8.0, 150 mM KCl, 2 mM DTT (Superose 6 Increase for MBP-SYCP1αN-His-SYCE3); details: both partners purified
T3 construct: SYCP1 α-helical core without the αNtip, amino-acids 112-783; also called SYCP1's full α-helical core, in which αNtips were deleted; source: E. coli BL21(DE3), purified, alone or in complex with SYCE3
T3 sequence (looked up): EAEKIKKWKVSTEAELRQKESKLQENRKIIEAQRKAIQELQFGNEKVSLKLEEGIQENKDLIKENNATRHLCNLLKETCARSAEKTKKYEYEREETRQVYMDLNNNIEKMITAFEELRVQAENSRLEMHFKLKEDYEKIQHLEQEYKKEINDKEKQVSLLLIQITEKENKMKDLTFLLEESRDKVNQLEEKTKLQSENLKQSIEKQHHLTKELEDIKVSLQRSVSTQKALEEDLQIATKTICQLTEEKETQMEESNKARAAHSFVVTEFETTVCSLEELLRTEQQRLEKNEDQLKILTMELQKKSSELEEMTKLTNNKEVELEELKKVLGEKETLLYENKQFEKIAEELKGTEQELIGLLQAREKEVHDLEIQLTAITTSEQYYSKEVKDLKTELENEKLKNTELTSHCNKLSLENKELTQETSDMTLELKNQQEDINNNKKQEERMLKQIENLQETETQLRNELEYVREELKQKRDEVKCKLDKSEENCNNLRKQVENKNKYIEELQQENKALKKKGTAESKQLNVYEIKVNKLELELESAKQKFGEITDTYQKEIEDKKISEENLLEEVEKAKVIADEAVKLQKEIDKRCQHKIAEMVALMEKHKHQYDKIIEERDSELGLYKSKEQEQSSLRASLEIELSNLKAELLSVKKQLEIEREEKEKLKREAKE

[5] = biological target: T4, SYCP1αN (amino-acids 101-362) (human, UniProt Q15431 101-362); assay: as above; details: both partners purified
T4 construct: SYCP1 α-helical N-terminal region, amino-acids 101-362; source: E. coli BL21(DE3), purified, alone or co-expressed and co-purified with SYCE3
T4 sequence (looked up): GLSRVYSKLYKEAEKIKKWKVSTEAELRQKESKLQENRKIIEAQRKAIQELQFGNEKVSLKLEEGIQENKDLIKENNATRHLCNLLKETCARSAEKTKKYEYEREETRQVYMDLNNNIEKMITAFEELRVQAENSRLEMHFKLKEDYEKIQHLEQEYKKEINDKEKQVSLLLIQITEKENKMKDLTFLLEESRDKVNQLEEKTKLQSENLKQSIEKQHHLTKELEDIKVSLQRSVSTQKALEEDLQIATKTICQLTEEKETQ

[6] = biological target: T5, SYCP1αN ΔNtip (human, UniProt Q15431 112-362); assay: as above; details: both partners purified
T5 construct: SYCP1αN (101-362) with the αNtip (101-111) deleted; also called SYCP1 ΔNtip; source: E. coli BL21(DE3), co-purified with SYCE3
T5 sequence (looked up): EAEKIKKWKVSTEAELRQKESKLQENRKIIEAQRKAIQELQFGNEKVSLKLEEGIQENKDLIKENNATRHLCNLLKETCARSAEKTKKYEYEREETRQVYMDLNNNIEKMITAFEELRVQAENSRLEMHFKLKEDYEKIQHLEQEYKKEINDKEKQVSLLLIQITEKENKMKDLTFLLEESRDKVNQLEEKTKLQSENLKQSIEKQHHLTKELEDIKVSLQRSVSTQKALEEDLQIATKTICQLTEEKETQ

[7] = biological target: T6, SYCP1αN V105E L109E (human, UniProt Q15431 101-362, V105E | L109E); assay: as above; details: both partners purified
T6 construct: SYCP1αN, amino-acids 101-362, with V105E L109E; source: E. coli BL21(DE3), in complex with SYCE3
T6 sequence (looked up): T4 sequence (looked up) with V5E, L9E

[8] = biological target: T1, SYCP1αNcore (amino-acids 206-362); assay: as above; details: both partners purified

B1: SYCE3 (natural protein, human, UniProt A1L190 1-88, looked up)
chain: MDDADPEERNYDNMLKMLSDLNKDLEKLLEEMEKISVQATWMAYDMVVMRTNPTLAESMRRLEDAFVNCKEEMEKNWQELLHETKQRL
notes: SYCE3 without a stated truncation; Dimer alone (SEC-MALS); one chain in the 2:1 complex with SYCP1; also called SYCE3 wild-type; free SYCE3; source: E. coli BL21(DE3), purified (Ni-NTA or amylose, TEV, anion exchange, SEC), alone or co-purified with SYCP1 constructs; not shown: His or His-MBP, N-terminal, cleaved
[1]
  stoichiometry N: 2
[2]
  Kd: 170 nM
  apparent KD of one replicate: 230 nM and 120 nM and 160 nM
[3]
  Kd: 21800 nM
[4]
  stoichiometry N: 2 SYCP1 chains per SYCE3 chain
[5]
  stoichiometry N: 2 SYCP1 chains per SYCE3 chain (2:1) and 4 SYCP1 chains with 2 SYCE3 chains (4:2)
[6]
  stoichiometry N: 2 SYCP1 chains per SYCE3 chain
[7]
  stoichiometry N: 2 SYCP1 chains per SYCE3 chain
[8]
  stoichiometry N: 2 SYCP1 chains per SYCE3 chain
